The values below are quoted from earlier work in publication PMC6899468.

For orientation: Kd means the free concentration of one partner at which half of the binding sites on the other are occupied at equilibrium, for simple one-to-one binding.

This data set addresses neuropilin-1 (Homo sapiens) (UniProt O14786).
UniProt O14786, sequence (O14786 22-856): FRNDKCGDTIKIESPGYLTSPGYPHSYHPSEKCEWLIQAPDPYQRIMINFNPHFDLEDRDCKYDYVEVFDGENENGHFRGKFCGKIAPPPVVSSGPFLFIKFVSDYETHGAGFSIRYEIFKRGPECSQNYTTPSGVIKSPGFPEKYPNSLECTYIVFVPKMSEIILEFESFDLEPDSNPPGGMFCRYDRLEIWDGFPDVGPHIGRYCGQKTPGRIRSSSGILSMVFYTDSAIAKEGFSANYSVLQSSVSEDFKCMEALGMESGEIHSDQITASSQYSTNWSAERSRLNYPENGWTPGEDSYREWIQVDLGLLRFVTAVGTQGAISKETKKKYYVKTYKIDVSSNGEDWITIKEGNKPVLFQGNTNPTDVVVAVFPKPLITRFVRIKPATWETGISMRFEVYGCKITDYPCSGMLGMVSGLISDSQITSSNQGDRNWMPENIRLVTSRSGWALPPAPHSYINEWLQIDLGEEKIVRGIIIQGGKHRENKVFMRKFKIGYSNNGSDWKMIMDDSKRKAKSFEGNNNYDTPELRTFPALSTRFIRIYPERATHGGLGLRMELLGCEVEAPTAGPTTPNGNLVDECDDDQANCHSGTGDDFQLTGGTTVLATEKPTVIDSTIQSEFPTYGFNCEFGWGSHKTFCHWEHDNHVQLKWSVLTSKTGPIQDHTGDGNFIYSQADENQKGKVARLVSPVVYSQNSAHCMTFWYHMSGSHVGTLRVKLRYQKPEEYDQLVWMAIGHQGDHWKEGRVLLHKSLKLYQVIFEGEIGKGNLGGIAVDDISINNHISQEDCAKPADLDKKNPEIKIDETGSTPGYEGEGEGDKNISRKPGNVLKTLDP

Regarding “chromogranin A fragment hCgA1-373 1-373 (from UniProt P10645)”, the Kd was 3.49 nM.
